From US20230220053A1 (published 2023)
Substitutions are numbered along the chain they refer to.

B1: 2020EP54-H01 IgG1 (antibody, V domains shown)
VH: QVQLVESGGGVVQPGRSLRLSCAASGFTFSSYGMHWVRQAPGKGLEWVAVISYDGSNKYYADSVKGRFTISRDNSKNTLYLQMNSLRAEDTAVYYCAKGRGWYLDYWGQGTLVTVSS
VL: NFMLTQPPSVSVSPGQTASITCSGDKLGDKYACWYQQKPGQSPVLVMYEDYKRPSGIPARFSGSNSGNTATLTISRVEGGDEGDYYCQVWDSRGPEVIFGGGTKLTVL
notes: also called 2020EP054-H01; EP054-H01, IgG1
B2: 2020EP60-A12 scFv (scFv)
scFv: EVQLVESGGGVVQPGRSLRLSCAASGFTFSSYGMHWVRQAPGKGLEWVAVISYDGSNKYYADSVKGRFTISRDNSKNTLYLQMNSLRAEDTAVYYCAKGLEYYFDYWGQGTLVTVSSGGGGSGGGGSGGGGSSYELTQPPSLSVSPGQTARITCSGDALPEQYAYWYQQKPGQAPVLVIYKDSERPSGIPERFSGSSSGTTVTLTISGVQAEDEADYYCQAWDSSTVVFGGGTKLTVL
B3: 2020EP60-F05 scFv (scFv)
scFv: QVQLVESGGGVVQPGGSLRLSCAASGFTFSSYGMHWVRQAPGKGLEWVAVISYDGSNKYYADSVKGRFTISRDNSKNTLYLQMNSLRAEDTAVYYCAKARVALGYFDWLLYDGMDVWGQGTTVTVSSGGGGSGGGGSGGGGSSSELTQPPSVSVSPGQTASITCSGDKLGNKYVFWYQQKPGQSPILVIYQDNRRPSGIPERFSGSNSGNTATLTISGDPAMDEADYYCQAWDSSTVVFGGGTKLTVL
B4: 2020EP66-D03 scFv (scFv)
scFv: QVQLQQWGAGLLKPSETLSLTCAVYGGSFSGYYWSWIRQPPGKGLEWIGEINHSGSTNYNPSLKSRVTISVDTSKNQFSLKLSSVTAADTAVYYCARGPPLWNYGKGFDYWGQGTLVTVSSGGGGSGKGGSGGGGSQPVLTQPPSASGTPGQRVTISCSGSSSNIGSNYVYWYQQLPRTAPKLLIYRNNQRPSGVPDRFSGSKSGTSASLAISGLRSEDEADYYCAAWDDSLSAWVFGGGTKLTVL
B5: 2020EP53-D06 scFv (scFv)
scFv: QVQLVQSGGGVVQPGRSLRLSCAASGFTFSSYAMHWVRQAPGKGLEWVAVISYDGSNKYYADSVKGRFTISRDNSKNTLYLQMNSLRAEDTAVYYCARDGEDGYNYISPFDYWGQGTLVTVSSGGGGSGGGGSGGGGSSYELTQPPSVSVAPGETARITCRGNDIGSKSVHWYQQKPGQAPVLVLYYDSDRPSGIPERFSGSNSGNTATLTISSVEAGDEADYYCQVWDIDVVFGGGTKLTVL
B6: 2020EP64-G10 scFv (scFv)
scFv: B5 scFv with G137R, Q226H
B7: 2020EP66-A07 scFv (scFv)
scFv: EVQLVQSGAEVKKPGSSVKVSCKASGGTFSSYAISWVRQAPGQGLEWMGGIIPIFGTANYAQKFQGRVTITADESTSTAYMELSSLRSEDTAVYYCASGGDGYNYDYYYYGMDVWGQGTTVTVSSGGGGSGGGGSGGGGSSYELTQPPSVSVSPGQTATITCSGEKLGDKYSFWYQQKPGQSPVMVMYQDDQRPSGTPERFSGSNSGNTATLTISGTRATDEADYYCQAWDNSASVFGSGTKLTVL
B8: 2020EP75-E02 scFv (scFv)
scFv: QMQLVQSGAEVKKPGSSVKVSCKASGGTFSSYAISWVRQAPGQGLEWMGGIIPIFGTANYAQKFQGRVTITADKSTSTAYMELSSLRSEDTAVYYCARPRDYRAQYYFDYWGQGTLVTVSSGGGGSGGGGSGGGGSDIVMTQSPSSLSASVGDRVTITCRAGQDIDTSVNWYQLKPGKAPRLLIYASSSLQTGVPSRFSGGGSGAEFTLTISSLQPEDFATYFCQQTFSTSVTFGGGTKVEIK
B9: 2020EP61-A08 scFv (scFv)
scFv: QVQLVQSGAEVKKPGASVKVSCKASGYTFTSYYMHWVRQAPGQGLEWMGIINPSGGSTSYAQKFQGRVTMTRDTSTSTVYMELSSLRSEDTAVYYCARESGNYYYDSSGYTFDYWGQGTLVTVSSGGGGSGGGGSGGGGSSYVLTQPLSVSVALGQTARITCGGNNIGSKNVHWYQQKPGQAPVLVIYYDSDRPSGIPERFSGSNSGNTATLTISGTQAMDEADYYCQAWDSSTVVFGGGTKLTVL
B10: 2020EP71-E04 scFv (scFv)
scFv: QVQLVQSGGGVVQPGRSLRLSCAASGFTFSSYGMHWVRQAPGKGLEWVAVISYDGSNKYYADSVKGRFTISRDNSKNTLYLQMNSLRAEDTAVYYCAKDRAYYYGYYYYYYGMDVWGQGTTVTVSSGGGGSGGGGSGGGGSQSVLTQPPSVSGAPGQRVTISCTGSSSNIGAGYDVHWYQQLPGTAPKLLIYGNSNRPSGVPDRFSGSKSGTSASLAITGLQAEDEADYYCATWDDSLSGPVFGGGTKVTVL
B11: 2020EP54-H01 scFv (scFv)
scFv: QVQLVESGGGVVQPGRSLRLSCAASGFTFSSYGMHWVRQAPGKGLEWVAVISYDGSNKYYADSVKGRFTISRDNSKNTLYLQMNSLRAEDTAVYYCAKGRGWYLDYWGQGTLVTVSSGGGGSGGGGSGGGGSNFMLTQPPSVSVSPGQTASITCSGDKLGDKYACWYQQKPGQSPVLVMYEDYKRPSGIPARFSGSNSGNTATLTISRVEGGDEGDYYCQVWDSRGPEVIFGGGTKLTVL
notes: also called 2020EP054-H01
B12: 2020EP64-C08 scFv (scFv)
scFv: QMQLVQSGAEVKKPGSSVKVSCKASGGTFSSYAISWVRQAPRQGLEWMGRIIPILGIANYAQKFQGRVTITADKSTSTAYMELSSLRSEDTAVYYCASSYGGNQLWGQGTLVTVSSGGGGSGGGGSGGGGSQSVLTQPPSASGTPGQRVTISCSGSDSNIGTNTVNWYQQVPGTAPKVLIYSTHQRPSGVPDRFSASKSGTSASLAISGLQSEDEADYYCSSWDVSLNAWVFGGGTKVTVL
B13: 2020EP54-B02 scFv (scFv)
scFv: QVQLVQSGAEVKKPGASVKVSCKASGYTFIGYYMHWMRQAPGQGLEWMGRINPNSGGTNYAEKFQGRVTMTRDTSISTAYMELSRLTFNDTAVYYCARWDSSSWKFDSWGQGTLVTVSSGGGGSGGGGSGGGGSEIVLTQSPSSLSASVGDRVTITCQASQDISNYLNWYQQKPGKAPKLLIYDASNLETGVPSRFSGSGSGTDFTFTISSLQPEDIATYYCQQYDNLPITFGQGTRLEIK

Experiments:
[1] = biological target: T1, S1 protein of SARS-COV (ACRO Biosciences) (SARS-COV, UniProt P59594 14-667); test: ELISA, SARS-COV S1 coated, IgG titrated, anti-human Fc HRP
T1 construct: domain: S1

[2] = biological target: T2, RBD of SARS-CoV-2 spike protein S1 (recombinant, construct not stated) (SARS-CoV-2, UniProt P0DTC2 328-533); test: ELISA, RBD coated, IgG1 titrated, anti-human Fc HRP
T2 construct: also called SARS-COV-2, RBD; RBD-AF647

[3] = biological target: S protein of SARS-COV-2 (Sino Biologics) (SARS-CoV-2, UniProt P0DTC2 16-1213); test: ELISA, S protein (Sino Biologics) coated, anti-human Fc HRP
[4] = biological target: T3, RBD of SARS-COV (ACRO Biosciences) (SARS-COV, UniProt P59594 306-527); test: ELISA, SARS-COV RBD coated, IgG titrated, anti-human Fc HRP
T3 construct: domain: RBD; also called RBD-SARS; SARS-COV, RBD

[5] = biological target: T4, S1 protein of SARS-CoV-2 (recombinant, construct not stated) (SARS-CoV-2, UniProt P0DTC2 16-685); test: ELISA, S1 coated, IgG1 titrated, anti-human Fc HRP
[6] = biological target: T2, RBD of SARS-CoV-2 spike protein S1 …; test: ELISA, RBD coated, scFv titrated, anti-Flag HRP
[7] = biological target: T4, S1 protein of SARS-CoV-2 (recombinant, …); test: ELISA, S1 coated, scFv titrated, anti-Flag HRP
[8] = biological target: T5, SARS-CoV-2-RBD (328-533)-Fc (SARS-CoV-2); test: SPR (Biacore T200), RBD captured on anti-human Fc chip, scFv injected
T5 construct: also called RBD-Fc

[9] = biological target: S1-Fc (SARS-CoV-2 S1 protein, Fc fusion) (SARS-CoV-2, UniProt P0DTC2 16-685); test: SPR (Biacore T200), S1 captured on anti-human Fc chip, scFv injected
[10] = biological target: T4, S1 protein of SARS-CoV-2 (recombinant, …)

Binder	binding result [1]	EC50 [2]	EC50 [3]	binding result [4]	EC50 [5]	EC50 [6]	EC50 [7]	Kd [8]	koff [8]	kon [8]	binding result [6]	Kd [9]	koff [9]	kon [9]	IC50 [10]
B1	no binding (tested: 200 nM (highest concentration tested))	0.101 nM	11.5 nM	no binding (tested: 200 nM (highest concentration tested))	0.101 nM										
B2						4.99 nM	27.3 nM								
B3						0.649 nM	1.38 nM	6.14 nM	0.00302 s⁻¹	491000 M⁻¹ s⁻¹					
B4							0.514 nM				no binding (tested: 200 nM (highest concentration tested))	19.5 nM	0.00256 s⁻¹	131000 M⁻¹ s⁻¹	
B5						0.818 nM	0.511 nM	4.4 nM	0.0011 s⁻¹	251000 M⁻¹ s⁻¹		7.84 nM	0.00204 s⁻¹	260000 M⁻¹ s⁻¹	
B6						0.663 nM	0.936 nM					11.2 nM	0.00242 s⁻¹	215000 M⁻¹ s⁻¹	
B7							0.525 nM				no binding (tested: 200 nM (highest concentration tested))	2.3 nM	0.00142 s⁻¹	614000 M⁻¹ s⁻¹	
B8							0.225 nM				no binding (tested: 200 nM (highest concentration tested))	4.46 nM	0.00174 s⁻¹	390000 M⁻¹ s⁻¹	
B9						2.52 nM	5.74 nM	69.4 nM	0.00191 s⁻¹	27500 M⁻¹ s⁻¹					
B10							5.03 nM				no binding (tested: 200 nM (highest concentration tested))	37.6 nM	0.0019 s⁻¹	50600 M⁻¹ s⁻¹	
B11						5.77 nM	20.4 nM	31.4 nM	0.00265 s⁻¹	84300 M⁻¹ s⁻¹		52.5 nM	0.0052 s⁻¹	99000 M⁻¹ s⁻¹	38.4 nM
B12						8.73 nM	40.2 nM					73.6 nM	0.00693 s⁻¹	94100 M⁻¹ s⁻¹	
B13						75.9 nM		69.5 nM	0.00242 s⁻¹	34900 M⁻¹ s⁻¹		91.8 nM	0.00366 s⁻¹	39900 M⁻¹ s⁻¹	
